In publication PMC8657308:
Read-outs that look alike come from different tables or passages of the source.

How the values were obtained:
[1] = molecular target: PahZ2_(KT-1), poly(aspartic acid) hydrolase-2 of Sphingomonas sp. KT-1 (Sphingomonas sp. KT-1); assay: SEC
[2] = molecular target: PahZ2_(KT-1), poly(aspartic acid) hydrolase-2 of Sphingomonas sp. KT-1 (Sphingomonas sp. KT-1); assay: SEC; remark: listed apart in the source

- stoichiometry N [1]: 1.94
- stoichiometry N [2]: 2.4
Substance: PahZ2_(KT-1), poly(aspartic acid) hydrolase-2 of Sphingomonas sp. KT-1 (enzyme)
